Measurements from IntAct's records for PubMed 18250304.

B1: Endothelial transcription factor GATA-2 (Homo sapiens), P23769 (parent)
chain: MEVAPEQPRWMAHPAVLNAQHPDSHHPGLAHNYMEPAQLLPPDEVDVFFNHLDSQGNPYYANPAHARARVSYSPAHARLTGGQMCRPHLLHSPGLPWLDGGKAALSAAAAHHHNPWTVSPFSKTPLHPSAAGGPGGPLSVYPGAGGGSGGGSGSSVASLTPTAAHSGSHLFGFPPTPPKEVSPDPSTTGAASPASSSAGGSAARGEDKDGVKYQVSLTESMKMESGSPLRPGLATMGTQPATHHPIPTYPSYVPAAAHDYSSGLFHPGGFLGGPASSFTPKQRSKARSCSEGRECVNCGATATPLWRRDGTGHYLCNACGLYHKMNGQNRPLIKPKRRLSAARRAGTCCANCQTTTTTLWRRNANGDPVCNACGLYYKLHNVNRPLTMKKEGIQTRNRKMSNKSKKSKKGAECFEELSKCMQEKSSPFSAAALAGHMAPVGHLPPFSHSGHILPTPTPIHPSSSLSFGHPHPSSMVTAMG

Variants of: B1
Settings: with cbp_human CREBBP

effect of a mutation on the interaction	Variant
increasing interaction	L359V
